# Measured values: US20230406950A1 (LYVGEN BIOPHARMA, published 2023)
# Read-outs that look alike come from different tables or passages of the source.
# T1: human OX40 expressed on CHO cells (human, UniProt P43489 29-277)
# T1 construct: whole, on cells
# T1 sequence (looked up): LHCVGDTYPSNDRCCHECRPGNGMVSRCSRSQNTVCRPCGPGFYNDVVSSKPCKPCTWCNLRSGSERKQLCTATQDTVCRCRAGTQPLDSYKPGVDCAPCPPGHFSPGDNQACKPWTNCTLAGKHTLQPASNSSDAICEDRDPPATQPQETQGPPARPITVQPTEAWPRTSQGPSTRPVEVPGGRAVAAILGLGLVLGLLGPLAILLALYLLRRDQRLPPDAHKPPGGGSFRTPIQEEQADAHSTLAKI
# T2: human GITR expressed on cells (human, UniProt Q9Y5U5 26-241)
# T2 construct: whole, on cells; also called TNFRSF18; CD357
# T2 sequence (looked up): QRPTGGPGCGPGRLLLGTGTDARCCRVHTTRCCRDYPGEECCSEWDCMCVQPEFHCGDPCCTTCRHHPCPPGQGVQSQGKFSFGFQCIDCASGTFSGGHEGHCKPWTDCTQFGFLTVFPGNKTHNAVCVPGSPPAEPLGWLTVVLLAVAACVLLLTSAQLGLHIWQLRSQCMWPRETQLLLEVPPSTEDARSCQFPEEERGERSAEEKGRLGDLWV
# How the values were obtained:
# [1] = target: T3, human CD137 expressed on cells (human, UniProt Q07011 24-255); assay: FACS on CHO cells expressing human CD137 (MFI)
# T3 construct: whole, on cells; also called 4-1BB; TNFRSF9
# T3 sequence (Q07011 24-255): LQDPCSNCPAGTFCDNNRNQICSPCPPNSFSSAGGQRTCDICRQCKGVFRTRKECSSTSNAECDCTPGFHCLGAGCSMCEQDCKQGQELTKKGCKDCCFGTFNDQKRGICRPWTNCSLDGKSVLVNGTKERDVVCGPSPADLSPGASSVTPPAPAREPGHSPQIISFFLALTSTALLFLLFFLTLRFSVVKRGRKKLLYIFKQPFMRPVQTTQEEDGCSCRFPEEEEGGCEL
# Procedure: (§1) Anti-OX40/CD137 bi-specific antibodies were analyzed by FACS for their binding properties to human OX40 and/or human CD137 expressed on CHO cells. Briefly, cultured cells were harvested, counted and cell viability was evaluated using the Trypan Blue exclusion method. Viable cells were then adjusted to 2×10⁶ cells per mL in PBS containing 2% BSA. 100 μL of this cell suspension were further aliquoted per well into a V-bottom 96-well plate. […] After incubation for 2 hours at 4° C., cells were centrifuged (3 min, 1000×g), washed with 250 μL/well BSA-containing FACS Stain Buffer, resuspended and incubated for an additional 1 hour at 4° C. with 100 μL/well fluorochrome-conjugated anti-IgG antibody for detection of the bisepecific antibody. Cells were then washed with 250 μL/well BSA-containing FACS Stain Buffer, resuspended in 100 μL/well FACS Stain Buffer, acquired and analyzed using a FACS machine. Binding of the bispecific antibodies to human OX40 or human CD137 expressing CHO cells were evaluated and the mean fluorescence intensity is plotted in histograms or dot plots.
# [2] = target: T1, human OX40 expressed on CHO cells; assay: FACS on CHO cells expressing human OX40 (MFI)
# Procedure: as §1
# [3] = target: T2, human GITR expressed on cells; assay: flow cytometry (FACS), MFI, CHO cells expressing human GITR
# Procedure: as §1, with “Anti-GITR/CD137” for “Anti-OX40/CD137”, “GITR” for “OX40”, “1000× g),” for “1000×g),”
# [4] = target: T3, human CD137 expressed on cells; assay: FACS on CHO cells expressing human CD137 (MFI); remark: listed apart in the source
# Procedure: as §1, with “Anti-GITR/CD137” for “Anti-OX40/CD137”, “GITR” for “OX40”, “1000× g),” for “1000×g),”
Binder,binding result [3],EC50 (read off the curve) [4],other results
"Ly762 (bispecific antibody, human IgG1, kappa, Ly1630 light chain) heavy: QVQLVQSGAEVKKPGASVKVSCKASGYTFAGFEMHWVRQAPGQGLEWMGAIDPKTGGTDYNQKFKDRVTMTRDTSISTAYMELSRLRSDDTAVYYCARDLGYFDVWGQGTLVTVSSASTKGPSVFPLAPSSKSTSGGTAALGCLVKDYFPEPVTVSWNSGALTSGVHTFPAVLQSSGLYSLSSVVTVPSSSLGTQTYICNVNHKPSNTKVDKKVEPKSCDKTHTCPPCPAPELLGPSVFLFPPKPKDTLMISRTPEVTCVVVDVSHEDPEVKFNWYVDGVEVHNAKTKPREEQYNSTYRVVSVLTVLHQDWLNGKEYKCKVSNKALPAPIEKTISKAKGQPREPQVYTLPPSREEMTKNQVSLTCLVKGFYPSDIAVEWESNGQPENNYKTTPPVLDSDGSFFLYSKLTVDKSRWQQGNVFSCSVMHEALHNHYTQKSLSLSPGGGGGSGGGGSGGGGSGGGGSDIQMTQSPSSLSASVGDRVTITCRASQDISNYLNWYQQKPGKAPKLLIYYTSRLRSGVPSRFSGSGSGTDFTLTISSLQPEDFATYYCQQGHTLPPTFGQGTKVEIKGGGGSGGGGSGGGGSGGGGSEVQLVQSGAEVKKPGASVKVSCKASGYTFTDSYMSWVRQAPGQGLEWIGDMYPDNGDSSYNQKFRERVTITRDTSTSTAYLELSSLRSEDTAVYYCVLAPRWYFSVWGQGTLVTVSS light: DIQMTQSPSSLSASVGDRVTITCRASQDIRSNLNWYQQKPGGAVKLLIYYTSRLHSGVPSRFSGSGSGTDYTLTISSLQPEDFATYFCQQSEKLPRTFGGGTKVEIRRTVAAPSVFIFPPSDEQLKSGTASVVCLLNNFYPREAKVQWKVDNALQSGNSQESVTEQDSKDSTYSLSSTLTLSKADYEKHKVYACEVTHQGLSSPVTKSFNRGEC",–,–,EC50 (read off the curve) [1]: ~0.1 µg/mL; binding result [2]: binds
"Ly748 (bispecific antibody, human IgG1, kappa, Anti-GITR/CD137: Ly1630 heavy chain; Ly1630 light chain fused to TM677 scFv (VL-VH)) heavy: QVQLVQSGAEVKKPGASVKVSCKASGYTFAGFEMHWVRQAPGQGLEWMGAIDPKTGGTDYNQKFKDRVTMTRDTSISTAYMELSRLRSDDTAVYYCARDLGYFDVWGQGTLVTVSSASTKGPSVFPLAPSSKSTSGGTAALGCLVKDYFPEPVTVSWNSGALTSGVHTFPAVLQSSGLYSLSSVVTVPSSSLGTQTYICNVNHKPSNTKVDKKVEPKSCDKTHTCPPCPAPELLGPSVFLFPPKPKDTLMISRTPEVTCVVVDVSHEDPEVKFNWYVDGVEVHNAKTKPREEQYNSTYRVVSVLTVLHQDWLNGKEYKCKVSNKALPAPIEKTISKAKGQPREPQVYTLPPSREEMTKNQVSLTCLVKGFYPSDIAVEWESNGQPENNYKTTPPVLDSDGSFFLYSKLTVDKSRWQQGNVFSCSVMHEALHNHYTQKSLSLSPGK light: DIQMTQSPSSLSASVGDRVTITCRASQDIRSNLNWYQQKPGGAVKLLIYYTSRLHSGVPSRFSGSGSGTDYTLTISSLQPEDFATYFCQQSEKLPRTFGGGTKVEIRRTVAAPSVFIFPPSDEQLKSGTASVVCLLNNFYPREAKVQWKVDNALQSGNSQESVTEQDSKDSTYSLSSTLTLSKADYEKHKVYACEVTHQGLSSPVTKSFNRGECGGGGSGGGGSGGGGSGGGGSDTVLTQSPATLSLSPGERATLSCRASKSVRTGMHWYQQKPGQAPRLLVYGASNLESGIPARFSGSGSGTDFTLTISSLEPEDFATYFCHQSWNHFTFGQGTKLEIKGGGGSGGGGSGGGGSGGGGSQVQLQESGPGLVKPSETLSLTCTVSGFSLTSYNVHWIRQPPGKGLEWIGVIWSGVRTDYNSVLKSRVTISVDTSKNQFSLKLSSVTAADTAVYYCARGTYDANYHDVMDAWGQGTMVTVSS",binds,–,–
"Ly750 (bispecific antibody, human IgG1, kappa, Anti-GITR/CD137: TM677 heavy chain fused to Ly1630 scFv (VL-VH)) heavy: QVQLQESGPGLVKPSETLSLTCTVSGFSLTSYNVHWIRQPPGKGLEWIGVIWSGVRTDYNSVLKSRVTISVDTSKNQFSLKLSSVTAADTAVYYCARGTYDANYHDVMDAWGQGTMVTVSSASTKGPSVFPLAPSSKSTSGGTAALGCLVKDYFPEPVTVSWNSGALTSGVHTFPAVLQSSGLYSLSSVVTVPSSSLGTQTYICNVNHKPSNTKVDKKVEPKSCDKTHTCPPCPAPELLGPSVFLFPPKPKDTLMISRTPEVTCVVVDVSHEDPEVKFNWYVDGVEVHNAKTKPREEQYNSTYRVVSVLTVLHQDWLNGKEYKCKVSNKALPAPIEKTISKAKGQPREPQVYTLPPSREEMTKNQVSLTCLVKGFYPSDIAVEWESNGQPENNYKTTPPVLDSDGSFFLYSKLTVDKSRWQQGNVFSCSVMHEALHNHYTQKSLSLSPGGGGGSGGGGSGGGGSGGGGSDIQMTQSPSSLSASVGDRVTITCRASQDIRSNLNWYQQKPGGAVKLLIYYTSRLHSGVPSRFSGSGSGTDYTLTISSLQPEDFATYFCQQSEKLPRTFGGGTKVEIRGGGGSGGGGSGGGGSGGGGSQVQLVQSGAEVKKPGASVKVSCKASGYTFAGFEMHWVRQAPGQGLEWMGAIDPKTGGTDYNQKFKDRVTMTRDTSISTAYMELSRLRSDDTAVYYCARDLGYFDVWGQGTLVTVSS light: DTVLTQSPATLSLSPGERATLSCRASKSVRTGMHWYQQKPGQAPRLLVYGASNLESGIPARFSGSGSGTDFTLTISSLEPEDFATYFCHQSWNHFTFGQGTKLEIKRTVAAPSVFIFPPSDEQLKSGTASVVCLLNNFYPREAKVQWKVDNALQSGNSQESVTEQDSKDSTYSLSSTLTLSKADYEKHKVYACEVTHQGLSSPVTKSFNRGEC",binds,~0.2 µg/mL,–
"Ly751 (bispecific antibody, human IgG1, kappa, Anti-GITR/CD137: TM677 heavy chain fused to Ly1630 scFv (VH-VL); TM677 light chain) heavy: QVQLQESGPGLVKPSETLSLTCTVSGFSLTSYNVHWIRQPPGKGLEWIGVIWSGVRTDYNSVLKSRVTISVDTSKNQFSLKLSSVTAADTAVYYCARGTYDANYHDVMDAWGQGTMVTVSSASTKGPSVFPLAPSSKSTSGGTAALGCLVKDYFPEPVTVSWNSGALTSGVHTFPAVLQSSGLYSLSSVVTVPSSSLGTQTYICNVNHKPSNTKVDKKVEPKSCDKTHTCPPCPAPELLGPSVFLFPPKPKDTLMISRTPEVTCVVVDVSHEDPEVKFNWYVDGVEVHNAKTKPREEQYNSTYRVVSVLTVLHQDWLNGKEYKCKVSNKALPAPIEKTISKAKGQPREPQVYTLPPSREEMTKNQVSLTCLVKGFYPSDIAVEWESNGQPENNYKTTPPVLDSDGSFFLYSKLTVDKSRWQQGNVFSCSVMHEALHNHYTQKSLSLSPGGGGGSGGGGSGGGGSGGGGSQVQLVQSGAEVKKPGASVKVSCKASGYTFAGFEMHWVRQAPGQGLEWMGAIDPKTGGTDYNQKFKDRVTMTRDTSISTAYMELSRLRSDDTAVYYCARDLGYFDVWGQGTLVTVSSGGGGSGGGGSGGGGSGGGGSDIQMTQSPSSLSASVGDRVTITCRASQDIRSNLNWYQQKPGGAVKLLIYYTSRLHSGVPSRFSGSGSGTDYTLTISSLQPEDFATYFCQQSEKLPRTFGGGTKVEIR light: DTVLTQSPATLSLSPGERATLSCRASKSVRTGMHWYQQKPGQAPRLLVYGASNLESGIPARFSGSGSGTDFTLTISSLEPEDFATYFCHQSWNHFTFGQGTKLEIKRTVAAPSVFIFPPSDEQLKSGTASVVCLLNNFYPREAKVQWKVDNALQSGNSQESVTEQDSKDSTYSLSSTLTLSKADYEKHKVYACEVTHQGLSSPVTKSFNRGEC",binds,~0.2 µg/mL,–
"TM685 (antibody, human IgG1, kappa, V domains shown, Humanized anti-GITR antibody; also called humanized LYV396 antibody (LYV396_VH-1/IgG1mut, LYV396_VL-1/kappa)) VH: QVQLQESGPGLVKPSETLSLTCTVSGFSLTSYNVHWIRQPPGKGLEWIGVIWSGVRTDYNSVLKPRVTISVDTSKNQFSLKLSSVTAADTAVYYCARGTYDDNYHDVMDAWGQGTLVTVSS VL: EIVLTQSPATLSLSPGERATLSCRASKSVRTGMHWYQQKPGQAPRLLIYGASNLESGIPARFSGSGSGTDFTLTISSLEPEDFAVYYCQQSWNHFTFGQGTKLEIKR",–,–,EC50 (read off the curve) [3]: ~0.7 µg/mL
